# Measurements from US20100062980A1 (NATIONAL UNIVERSITY OF SINGAPORE, published 2010).
# B1: β-cardiotoxin (ligand)
# chain: RKCLNTPLPLIYTTCPIGQDKCVKMTIKKLPSKYDVIRGCIDICPKSSADVEVLCCDTNKCNK
# notes: also called beta-cardiotoxin; AY354198 protein
# Columns and labels:
# [1] = target: T1, cloned human β-adrenergic receptor subtype 1 (human, UniProt P08588 1-477)
# [2] = target: T2, cloned human β-adrenergic receptor subtype 2 (human, UniProt P07550 1-413)
# [3] = target: T1, cloned human β-adrenergic receptor …; assay: radioligand displacement ((-)-[3H]CGP-12177), Ki from IC50 by Cheng-Prusoff
# [4] = target: T2, cloned human β-adrenergic receptor …; assay: as above
# T1 sequence (P08588 whole entry): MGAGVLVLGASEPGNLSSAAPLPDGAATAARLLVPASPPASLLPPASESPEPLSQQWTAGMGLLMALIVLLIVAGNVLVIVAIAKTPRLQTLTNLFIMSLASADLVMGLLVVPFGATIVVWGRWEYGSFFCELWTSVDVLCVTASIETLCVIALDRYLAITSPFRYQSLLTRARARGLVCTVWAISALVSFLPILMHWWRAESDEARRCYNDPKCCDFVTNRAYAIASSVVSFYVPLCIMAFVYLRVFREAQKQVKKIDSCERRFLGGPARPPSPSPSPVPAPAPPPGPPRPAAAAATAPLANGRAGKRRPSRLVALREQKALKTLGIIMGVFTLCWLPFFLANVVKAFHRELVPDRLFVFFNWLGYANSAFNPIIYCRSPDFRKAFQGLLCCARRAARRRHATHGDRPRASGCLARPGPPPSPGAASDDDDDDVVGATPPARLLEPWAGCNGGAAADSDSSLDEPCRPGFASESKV
binder,measurement,setting,value
B1,IC50,[1],10 µM
same,IC50,[2],5 µM
same,Ki,[3],5.3 µM
same,Ki,[4],2.3 µM
